B1: gp130: truncated human gp130 polypeptide encoded by plasmid B10G (SEQ ID NO: 2), expressed on COS-7 cells (protein)
chain: ELLDPCGYISPESPVVQLHSNFTAVCVLKEKCMDYFHVNANYIVWKTNHFTIPKEQYTIINRTASSVTFTDIASLNIQLTCNILTFGQLEQNVYGITIISGLPPEKPKNLSCIVNEGKKMRCEWDGGRETHLETNFTLKSEWATHKFADCKAKRDTPTSCTVDYSTVYFVNIEVWVEAENALGKVTSDHINFDPVYKVKPNPPHNLSVINSEELSSILKLTWTNPSIKSVIILKYNIQYRTKDASTWSQIPPEDTASTRSSFTVQDLKPFTEYVFRIRCMKEDGKGYWSDWSEEASGITYEDRPSKAPSFWYKIDPSHTQGYRTVQLVWKTLPPFEANGKILDYEVTLTRWKSHLQNYTVNATKLTVNLTNDRYLATLTVRNLVGKSDAAVLTIPACDFQATHPVMDLKAFPKDNMLWVEWTTPRESVKKYILEWCVLSDKAPCITDWQQEDGTVHRTYLRGNLAESKCYLITVTPVYADGPGSPESIKAYLKQAPPSKGPTVRTKKVGKNEAVLEWDQLPVDVQNGFIRNYTIFYRTIIGNETAVNVDSSHTEYTLSSLTSDTLYMVRMAAYTDEGGKDGPEFTFTTPKFAQGEIEAIVVPVCLAFLLTTLLGVLFCFNKRDLIKKHIWPNVPDPSKSHIAQWSPHTPPRHNFNSKDQMYSDGNFTDVSVVEIEANDKKPFPEDL
B2: LIF-R: human leukemia inhibitory factor receptor fragment encoded by cDNA clone pHLIFR-65 (SEQ ID NO: 6), expressed on COS-7 cells (protein)
chain: QKKGAPHDLKCVTNNLQVWNCSWKAPSGTGRGTDYEVCIENRSRSCYQLEKTSIKIPALSHGDYEITINSLHDFGSSTSKFTLNEQNVSLIPDTPEILNLSADFSTSTLYLKWNDRGSVFPHRSNVIWEIKVLRKESMELVKLVTHNTTLNGKDTLHHWSWASDMPLECAIHFVEIRCYIDNLHFSGLEEWSDWSPVKNISWIPDSQTKVFPQDKVILVGSDITFCCVSQEKVLSALIGHTNCPLIHLDGENVAIKIRNISVSASSGTNVVFTTEDNIFGTVIFAGYPPDTPQQLNCETHDLKEIICSWNPGRVTALVGPRATSYTLVESFSGKYVRLKRAEAPTNESYQLLFQMLPNQEIYNFTLNAHNPLGRSQSTILVNITEKVYPHTPTSFKVKDINSTAVKLSWHLPGNFAKINFLCEIEIKKSNSVQEQRNVTIKGVENSSYLVALDKLNPYTLYTFRIRCSTETFWKWSKWSNKKQHLTTEASPSKGPDTWREWSSDGKNLIIYWKPLPINEANGKILSYNVSCSSDEETQSLSEIPDPQHKAEIRLDKNDYIISVVAKNSVGSSPPSKIASMEIPNDDLKIEQVVGMGKGILLTWHYDPNMTCDYVIKWCNSSRSEPCLMDWRKVPSNSTETVIESDEFRPGIRYNFFLYGCRNQGYQLLRSMIGYIEELAPIVAPNFTVEDTSADSILVKWEDIPVEELRGFLRGYLFYFGKGERDTSKMRVLESGRSDIKVKNITDISQKTLRIADLQGKTSYHLVLRAYTDGGVGPEKSMYVVTKENSVGLIIAILIPVAVAVIVGVVTSILCYRKREWIKETFYPDIPNPENCKALQFQKSVCEGSSALKTLEMNPCTPNNVEVLETRSAFPKIEDTEIISPVAERPEDRSDAEPENHVVVSYCPPIIEEEIPNPAADEAGGTAQVIYIDVQSMYQPQAKPEEKKKKSRSSRSKI

What was measured:
[1] = tested on: Recombinant human LIF; assay: LIF binding assay (phthalate oil separation, Scatchard) on transfected COS-7 cells
Protocol: Recombinant human LIF is expressed in yeast and purified to homogeneity essentially as described by Hopp, et al., Bio/Technology 6:1204 (1988). The purified protein is radiolabeled using a commercially available enzymobead radioiodination reagent (BioRad). In this procedure 10 μg LIF in 50 μl 0.2M sodium phosphate, pH 7.2, are combined with 50 μl enzymobead reagent, 2 mCi of sodium iodide in 20 μl of 0.05M sodium phosphate pH 7.0 and 10 μl of 2.5% β-D-glucose. After 10 minutes at 25° C., sodium azide (20 μl of 50 mM) and sodium metabisulfite (10 μl of 5 mg/ml) are added and incubation is continued for 5 min. at 25° C. The reaction mixture is fractionated by gel filtration on a 2 ml bed volume of Sephadex® G-25 (Sigma) equilibrated in Roswell Park Memorial Institute (RPMI) 1640 medium containing 2.5% (w/v) bovine serum albumin (BSA), 0.2% (w/v) sodium azide and 20 mM Hepes pH 7.4 (binding medium). […]
The cells were separated from unbound ^125 I-LIF by centrifugation for five minutes at 15,000×g in an Eppendorf microfuge. […] The radioactivity in both parts was then determined on a gamma counter. The determinations of both cell-bound and unbound radioactivity from the two 60 μl aliquots were averaged for subsequent calculations. […]

[2] = tested on: oncostatin M; assay: Oncostatin M binding assay (phthalate oil separation, Scatchard) on transfected COS-7 cells; conditions: 125I-oncostatin M, compared with non-transfected COS-7 cells
Source text: Oncostatin M may be purified from cells in which the protein is naturally found, or from cells transformed with an expression vector encoding oncostatin M. One source of oncostatin M is phorbol ester-treated U937 cells, as described by Zarling et al., PNAS U.S.A. 83:9739 (1986). Purification of recombinant oncostatin M is described by Linsley et al., J. Biol. Chem. 264:4282-4289 (1989), which is hereby incorporated by reference in its entirety.
Oncostatin M may be radiolabeled using any suitable conventional procedure, such as the radioiodination procedure employed to radiolabel LIF in Example 1. The radio-iodination of oncostatin M has also been described by Linsley et al., supra.
The resulting radiolabeled oncostatin M may be substituted for radiolabeled LIF (using the same concentrations and other reaction parameters) in the assay procedures described in Example 1 in order to detect proteins and cells that bind oncostatin M. An assay for binding of ^125 I-oncostatin M to cells is also described in Linsley et al., supra.
COS-7 cells transfected with vector(s) encoding gp130 or LIF-R were assayed for the ability to bind oncostatin M. In separate transfections, COS-7 cells were transfected with the following combinations of vectors. […]

| Molecule | binding of LIF ([1]; 125I-LIF, COS-7 cells, compared with non-transfected COS-7 cells) | binding of LIF after preincubation with oncostatin M ([1]; cells transfected with pHLIFR-65 and CAV, preincubated with non-radiolabeled oncostatin M (curve D)) | binding of oncostatin M [2] |
| --- | --- | --- | --- |
| B1 | did not bind LIF in any measurable amount above the amount of binding to the non-transfected COS-7 cells |  |  |
| B2 |  | essentially unchanged | did not bind oncostatin M in any significant amount above that bound by the non-transfected COS-7 cells |

Reference: patent US5262522A, “Receptor for oncostatin M and leukemia inhibitory factor” (Immunex Corporation, priority 1991, dated 1993)
